Laboratory results: patent publication US20260266838A1 (NORDIC BIOSCIENCE A S, published 2026)
Ends that are not written are not given here.

Target: T1, monoclonal antibody (mAb) specific for the N-terminus amino acid sequence …, HRP-labeled, employed in the … (horseradish peroxidase (HRP) label, site not stated)
T1 construct: Mouse IgG2b / kappa from a hybridoma; also called HRP-labeled mAb; selected mAb
Assay: competitive ELISA: selection peptide against coated …-K-biotin for the HRP-labeled mAb; 10 independent runs
Procedure: All incubation steps were performed in the dark with constant shaking at 300 rpm and followed by five times wash of the wells using washing buffer ([…], 50 mM NaCl, pH 7.2). A 10-point calibration curve was plotted using a 4-parameter logistic curve fit of the selection peptide dilutions. Data were analyzed using the SoftMax Pro version 7.1.0 software (Molecular Devices).
Antibody specificity was evaluated using synthetic peptides and calculated as percentage of signal inhibition of two-fold diluted selection and deselection peptides (Table 1). Unspecific binding was tested using a nonsense screening peptide (biotin-[…] (SEQ ID NO: 23)). IC50 (half-maximal inhibition concentration) was determined from 10 independent runs of the 10-point calibration curve. The technical lower limit of detection (LLOD) was calculated as the mean signal of 60 determinations of a blank sample (i.e., assay buffer) plus 3× standard deviation (SD). The upper limit of quantification (ULOQ) was determined from 10 independent runs of the calibration curve and determined as the highest concentration of selection peptide determined with a recovery percentage within 100±20% of the nominal concentration and a CV<20%. […] Two-fold dilutions of four human serum samples quantified in three independent runs were used to evaluate assay linearity, calculated as percentage of recovery of the undiluted sample. […]

T1 sequence (VH, as listed by the source, chain 1 of 2): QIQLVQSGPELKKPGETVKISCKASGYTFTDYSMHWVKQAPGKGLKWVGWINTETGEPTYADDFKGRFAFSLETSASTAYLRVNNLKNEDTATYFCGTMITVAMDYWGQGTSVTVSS
T1 sequence (VL, as listed by the source, chain 2 of 2): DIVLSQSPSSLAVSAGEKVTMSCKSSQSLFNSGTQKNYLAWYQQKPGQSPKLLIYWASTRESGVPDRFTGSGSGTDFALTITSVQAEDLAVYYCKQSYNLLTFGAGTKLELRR

IC50: 0.0369 µg/mL
B1: Selection peptide VDTLPQKPRE (peptide)
peptide: VDTLPQKPRE
modifications: not fully specified
notes: Synthetic peptide (Genscript); the end 75 follows from the ten residues; also called calibrator peptide
